From article PMC5992459, “Novel DNA Aptamers that Bind to Mutant Huntingtin and Modify Its Activity” come the findings set out here.

The target of series [1] is endogenous huntingtin from HD60i4 NPC (CAG60/18) (Homo sapiens) (UniProt P42858). In words: streptavidin pull-down. Particulars: NPC lysate; ELISA: 10 mM Tris-HCl pH 8.0, 0.15 M NaCl (TBS), 2 mg/mL BSA block, 1 pmol huntingtin/well, 50 pmol biotin-aptamer, 2 h (RT for coating/blocking); caspase-6 …. In general terms: ELISA stands for enzyme-linked immunosorbent assay.
Series [2] has as its target Q78-huntingtin caspase-6 C-terminal fragment (270 kDa) (Homo sapiens, UniProt P42858 585-3142). As to the kind of experiment: caspase-6 digestion of complex, anti-biotin immunoblot; ELISA: 10 mM Tris-HCl pH 8.0, 0.15 M NaCl (TBS), 2 mg/mL BSA block, 1 pmol huntingtin/well, 50 pmol biotin-aptamer, 2 h (RT for coating/blocking); caspase-6 mapping: aptamer:huntingtin 10:1, 2 h RT, spin column; SLM: 5:1, 2 h RT. To be noted: protein: recombinant; label: 5'-biotin; intramolecular G4. For orientation: A western blot detects proteins with antibodies after separation by electrophoresis.

Q78-huntingtin caspase-6 C-terminal fragment (270 kDa), sequence (P42858 585-3142): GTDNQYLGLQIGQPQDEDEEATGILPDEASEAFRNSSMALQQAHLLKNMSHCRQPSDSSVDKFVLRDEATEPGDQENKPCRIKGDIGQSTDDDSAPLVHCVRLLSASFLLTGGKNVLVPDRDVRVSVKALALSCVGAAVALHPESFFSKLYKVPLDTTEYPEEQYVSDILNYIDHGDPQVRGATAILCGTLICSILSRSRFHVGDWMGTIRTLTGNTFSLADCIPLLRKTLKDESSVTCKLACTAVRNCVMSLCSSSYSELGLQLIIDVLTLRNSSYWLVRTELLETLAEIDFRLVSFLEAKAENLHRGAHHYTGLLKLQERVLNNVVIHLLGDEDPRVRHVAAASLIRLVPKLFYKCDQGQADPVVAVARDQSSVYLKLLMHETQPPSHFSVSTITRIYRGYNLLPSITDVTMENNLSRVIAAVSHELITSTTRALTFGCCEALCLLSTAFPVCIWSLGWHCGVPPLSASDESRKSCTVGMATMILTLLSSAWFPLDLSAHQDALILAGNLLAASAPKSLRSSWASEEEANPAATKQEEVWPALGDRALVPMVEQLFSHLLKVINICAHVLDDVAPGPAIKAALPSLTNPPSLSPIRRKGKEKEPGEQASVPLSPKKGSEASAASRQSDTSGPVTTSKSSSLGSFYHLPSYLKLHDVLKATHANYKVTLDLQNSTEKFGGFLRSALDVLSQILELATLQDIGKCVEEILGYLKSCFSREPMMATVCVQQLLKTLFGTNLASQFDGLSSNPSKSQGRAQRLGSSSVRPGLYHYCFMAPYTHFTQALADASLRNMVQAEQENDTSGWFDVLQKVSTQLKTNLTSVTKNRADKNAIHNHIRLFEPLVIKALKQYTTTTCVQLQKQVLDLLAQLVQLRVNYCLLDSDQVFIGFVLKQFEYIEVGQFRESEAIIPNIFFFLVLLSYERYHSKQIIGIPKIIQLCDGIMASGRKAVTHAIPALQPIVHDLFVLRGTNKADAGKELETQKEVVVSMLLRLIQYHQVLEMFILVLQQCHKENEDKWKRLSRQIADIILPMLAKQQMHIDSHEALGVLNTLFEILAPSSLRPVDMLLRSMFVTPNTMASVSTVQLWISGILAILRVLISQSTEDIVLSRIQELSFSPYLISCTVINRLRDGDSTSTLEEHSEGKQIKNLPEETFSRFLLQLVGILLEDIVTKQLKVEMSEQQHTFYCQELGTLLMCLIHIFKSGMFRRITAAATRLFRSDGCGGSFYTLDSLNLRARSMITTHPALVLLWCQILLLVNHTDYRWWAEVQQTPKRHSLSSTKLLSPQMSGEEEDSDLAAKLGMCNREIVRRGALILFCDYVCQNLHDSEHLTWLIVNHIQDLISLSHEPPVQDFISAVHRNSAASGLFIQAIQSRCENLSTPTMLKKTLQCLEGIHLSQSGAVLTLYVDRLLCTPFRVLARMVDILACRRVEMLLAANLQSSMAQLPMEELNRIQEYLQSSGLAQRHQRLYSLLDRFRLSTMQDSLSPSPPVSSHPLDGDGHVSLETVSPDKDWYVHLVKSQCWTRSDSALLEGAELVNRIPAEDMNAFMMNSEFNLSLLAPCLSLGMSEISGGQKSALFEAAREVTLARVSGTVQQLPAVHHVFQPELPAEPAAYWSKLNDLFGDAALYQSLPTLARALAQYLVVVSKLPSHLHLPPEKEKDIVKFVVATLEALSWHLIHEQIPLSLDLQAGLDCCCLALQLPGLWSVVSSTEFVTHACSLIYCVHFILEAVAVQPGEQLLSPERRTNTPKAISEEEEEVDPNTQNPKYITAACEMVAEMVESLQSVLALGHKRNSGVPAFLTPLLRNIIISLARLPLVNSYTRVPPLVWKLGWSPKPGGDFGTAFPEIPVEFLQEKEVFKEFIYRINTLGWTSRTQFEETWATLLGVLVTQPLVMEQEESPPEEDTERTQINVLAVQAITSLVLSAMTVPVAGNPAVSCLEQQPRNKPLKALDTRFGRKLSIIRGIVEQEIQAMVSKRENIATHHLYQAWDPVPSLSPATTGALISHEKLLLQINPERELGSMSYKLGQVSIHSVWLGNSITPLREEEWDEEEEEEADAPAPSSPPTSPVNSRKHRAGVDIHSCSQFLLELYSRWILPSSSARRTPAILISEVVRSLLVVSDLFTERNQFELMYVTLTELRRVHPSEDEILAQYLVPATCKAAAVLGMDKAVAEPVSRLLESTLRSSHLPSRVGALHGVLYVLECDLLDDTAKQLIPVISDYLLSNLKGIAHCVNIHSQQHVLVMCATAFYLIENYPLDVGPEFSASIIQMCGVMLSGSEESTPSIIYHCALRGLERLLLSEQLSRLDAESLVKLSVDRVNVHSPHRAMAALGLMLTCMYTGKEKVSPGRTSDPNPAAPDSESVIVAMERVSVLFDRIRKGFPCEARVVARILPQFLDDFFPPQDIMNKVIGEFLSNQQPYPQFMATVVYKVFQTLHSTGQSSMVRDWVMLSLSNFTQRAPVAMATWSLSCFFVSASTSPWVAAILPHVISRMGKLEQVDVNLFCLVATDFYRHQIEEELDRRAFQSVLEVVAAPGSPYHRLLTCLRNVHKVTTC

As to “GGGAGGGAGGGAGGGAGGGAGGGAGGGAGGGAGGGA [MS3]”, in series [1], the binding signal (fold vs HD17m8) stood at 3.6.

With AGGGGTGGGGAGGGGAGGGGA (structured_DNA) [MS2], the binding result in series [2] was “binds”.

In the case of AGGGGTGGGGAGGGGTGGGGA (structured_DNA) [MS1], the binding result in series [2] was “binds”. Same read-out and setting: next, GGGAGGGAGGGAGGGAGGGAGGGAGGGAGGGAGGGA (structured_DNA) [MS3]: “binds”. The same measure, in the same setting: next, TGGGGAGGGGAGGGGCGGGGT (structured_DNA) [MS4]: “binds”.
